Reference: patent US9284543B2, “Neutral active soluble truncated PH20 polypeptides and uses thereof” (Halozyme, Inc., priority 2008, dated 2016)

Tests used:
CHO-S cells [1] = experiment: PI-PLC treatment of expressing cells, Western blot of media and cells; type: cell-based, Chinese Hamster; details: cells incubated with PI-PLC for 2 hours
Method: In this example, following transient expression, as described in Example 2 above, the media and cells were harvested separately and analyzed for PH20 expression and solublility by Western blot analysis. Solubility of the C-terminus truncation mutants was determined by examining whether the expressed protein was present in the growth media or in the cells. […] Cells expressing these mutants were treated with phosphoinositol-phospholipase C (PI-PLC), which cleaves the GPI-anchor allowing the release of soluble protein into the media, and the presence of PH20 in the resulting media and cells was determined by Western blot analysis.
Following expression of rHuPH20 in CHO—S cells for 72 hours, as described in Example 2A above, the media and cells were harvested separately. The cells were washed with serum-free media followed by the addition of 2 mL serum-free media per well. PI-PLC (0.5 units/well) was added to each well and the cells were incubated in the PI-PLC for 2 hours. The resultant media and cells were analyzed by Western blot analysis as described above.
Two plates each of rHuPH20 expressing CHO—S cells, one for treatment with PI-PLC and one without treatment with PI-PLC, were prepared for each C-terminus mutant as described in Example 2B above. Following expression for 48 hours, for cells untreated with PI-PLC, the media and cells were harvested separately. The harvested media was spun down, concentrated to a volume of 10 mL, and buffer exchanged into PBS using an Amicon 30 kD MWCO concentrator. The cells were rinsed with cold PBS and scraped and resuspended in 1.2 mL PBS with protease inhibitor Set III (Cat No. 539134, Calbiochem). The resuspended cells were briefly sonicated to prepare whole-cell extract. For PI-PLC treatment of cells, following expression for 48 hours, the untreated media was harvested, as described above. The cells were rinsed once with fresh CD DG44 medium with Glutamax-1, and the media was replaced with 12 mL fresh detergent free CD DG44 medium supplemented with Glutamax-1 with 3.0 units PI-PLC per dish, and the cells were incubated for 2 hours at 37° C. with 5% CO2. After 2 hours, the PI-PLC media and cells were harvested separately, as described above. The resultant untreated media and cells, and PI-PLC treated media and cells, were analyzed by Western blot analysis as described above.

[2] = Triton X-114 partition assay; type: physicochemical; details: partition into aqueous phase of Triton X-114 at 37° C.
Method: Solubility of a hyaluronidase can be determined by any method known to one of the skill in the art. One method for determining solubility is by detergent partitioning. […] For example, the solubility of the PH20 polypeptides described herein is assessed as described in Example 4. Membrane-anchored hyaluronidases, such as lipid-anchored hyaluronidases, including GPI-anchored hyaluronidases, will partition into the detergent-rich phase, but will partition into the detergent-poor or aqueous phase following treatment with Phospholipase C. Phospholipase C is an enzyme that cleaves the […] found in GPI-anchored proteins. Treatment with PLC will cause release of GPI-linked proteins from the outer cell membrane.
The samples were heated to 37° C. for 3 minutes to induce phase separation and centrifuged for 3 min at 4000 g at room temperature. Aqueous and detergent phases were removed for SDS-PAGE analysis and Western blotting. Rabbit anti-PH20 IgG (0.5 μg/mL) was used as the primary antibody and HRP-conjugated goat anti-Rabbit IgG (0.1 ng/mL, Cat#DC03L, EMD) was used as the secondary antibody. Full length human PH20, which partitions strongly into the detergent phase, was used as a control.

[3] = Microtiter hyaluronidase activity assay with biotinylated-hyaluronic acid; type: biochemical; details: for pH 5.5 Activity / pH 7.4 Activity: 72 hour post transfection supernatant; for Hyaluronidase activity (in words): pH 7.4 and pH 5.5
CHO-S cells [4] = experiment: Western blot analysis of PH20 expression in media and cells after transient expression; type: cell-based, Chinese Hamster; details: media versus cells
Summary of the method: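 PH20 expression and solubility were judged by anti-PH20 Western blot of non-reduced media and cell fractions, with expression shown by a ~66 kDa band. Samples came from CHO-S cells transiently transfected (GeneJuice) with mutant PH20-HZ24 DNA and cultured 48-72 h. GPI-anchored mutants were cleaved with PI-PLC to release soluble protein.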

Molecule	Expressed in Media Following Addition of PI-PLC (CHO-S cells [1])	Soluble ([2]; listed as Full length PH20)	pH 5.5 Activity ([3]; Table 6) [Units/ml]	pH 7.4 Activity ([3]; Table 6) [Units/ml]	Expressed in Media (CHO-S cells [4])	Soluble [2]	pH 5.5 Activity ([3]; Table 6A) [Units/ml]	pH 7.4 Activity ([3]; Table 6A) [Units/ml]	Hyaluronidase activity (in words) [3]
SPAM1-VASL: full length human PH20, precursor 509 aa (SEQ ID NO:1), mature 474 aa (SEQ ID NO:108) (protein, listed as Homo sapiens, Human PH20 cDNA encoding amino acids 1-509) MGVLKFKHIFFRSFVKSSGVSQIVFTFLLIPCCLTLNFRAPPVIPNVPFLWAWNAPSEFCLGKFDEPLDMSLFSFIGSPRINATGQGVTIFYVDRLGYYPYIDSITGVTVNGGIPQKISLQDHLDKAKKDITFYMPVDNLGMAVIDWEEWRPTWARNWKPKDVYKNRSIELVQQQNVQLSLTEATEKAKQEFEKAGKDFLVETIKLGKLLRPNHLWGYYLFPDCYNHHYKKPGYNGSCFNVEIKRNDDLSWLWNESTALYPSIYLNTQQSPVAATLYVRNRVREAIRVSKIPDAKSPLPVFAYTRIVFTDQVLKFLSQDELVYTFGETVALGASGIVIWGTLSIMRSMKSCLLLDNYMETILNPYIINVTLAAKMCSQVLCQEQGVCIRKNWNSSDYLHLNPDNFAIQLEKGGKFTVRGKPTLEDLEQFSEKFYCSCYSTLSCKEKADVKDTDAVDVCIADGVCIDAFLKPPMETEEPQIFYNASPSTLSATMFIVSILFLIISSVASL	YES	insoluble	0.891	1.8045					
SPAM1-IVSI: C-terminally truncated human PH20, precursor 498 aa (SEQ ID NO:49), mature 463 aa (SEQ ID NO:101) (protein, listed as Homo sapiens, HuPH20 precursor 1-498; Mature HuPH20 36-498) chain 1: MGVLKFKHIFFRSFVKSSGVSQIVFTFLLIPCCLTLNFRAPPVIPNVPFLWAWNAPSEFCLGKFDEPLDMSLFSFIGSPRINATGQGVTIFYVDRLGYYPYIDSITGVTVNGGIPQKISLQDHLDKAKKDITFYMPVDNLGMAVIDWEEWRPTWARNWKPKDVYKNRSIELVQQQNVQLSLTEATEKAKQEFEKAGKDFLVETIKLGKLLRPNHLWGYYLFPDCYNHHYKKPGYNGSCFNVEIKRNDDLSWLWNESTALYPSIYLNTQQSPVAATLYVRNRVREAIRVSKIPDAKSPLPVFAYTRIVFTDQVLKFLSQDELVYTFGETVALGASGIVIWGTLSIMRSMKSCLLLDNYMETILNPYIINVTLAAKMCSQVLCQEQGVCIRKNWNSSDYLHLNPDNFAIQLEKGGKFTVRGKPTLEDLEQFSEKFYCSCYSTLSCKEKADVKDTDAVDVCIADGVCIDAFLKPPMETEEPQIFYNASPSTLSATMFIVSI chain 2: LNFRAPPVIPNVPFLWAWNAPSEFCLGKFDEPLDMSLFSFIGSPRINATGQGVTIFYVDRLGYYPYIDSITGVTVNGGIPQKISLQDHLDKAKKDITFYMPVDNLGMAVIDWEEWRPTWARNWKPKDVYKNRSIELVQQQNVQLSLTEATEKAKQEFEKAGKDFLVETIKLGKLLRPNHLWGYYLFPDCYNHHYKKPGYNGSCFNVEIKRNDDLSWLWNESTALYPSIYLNTQQSPVAATLYVRNRVREAIRVSKIPDAKSPLPVFAYTRIVFTDQVLKFLSQDELVYTFGETVALGASGIVIWGTLSIMRSMKSCLLLDNYMETILNPYIINVTLAAKMCSQVLCQEQGVCIRKNWNSSDYLHLNPDNFAIQLEKGGKFTVRGKPTLEDLEQFSEKFYCSCYSTLSCKEKADVKDTDAVDVCIADGVCIDAFLKPPMETEEPQIFYNASPSTLSATMFIVSI	Initially in media				YES	YES	0.203	0.527	little detectable activity
SPAM1-VSIL: C-terminally truncated human PH20, precursor 499 aa (SEQ ID NO:7), mature 464 aa (SEQ ID NO:59) (protein, listed as Homo sapiens, mature HuPH20 36-499) LNFRAPPVIPNVPFLWAWNAPSEFCLGKFDEPLDMSLFSFIGSPRINATGQGVTIFYVDRLGYYPYIDSITGVTVNGGIPQKISLQDHLDKAKKDITFYMPVDNLGMAVIDWEEWRPTWARNWKPKDVYKNRSIELVQQQNVQLSLTEATEKAKQEFEKAGKDFLVETIKLGKLLRPNHLWGYYLFPDCYNHHYKKPGYNGSCFNVEIKRNDDLSWLWNESTALYPSIYLNTQQSPVAATLYVRNRVREAIRVSKIPDAKSPLPVFAYTRIVFTDQVLKFLSQDELVYTFGETVALGASGIVIWGTLSIMRSMKSCLLLDNYMETILNPYIINVTLAAKMCSQVLCQEQGVCIRKNWNSSDYLHLNPDNFAIQLEKGGKFTVRGKPTLEDLEQFSEKFYCSCYSTLSCKEKADVKDTDAVDVCIADGVCIDAFLKPPMETEEPQIFYNASPSTLSATMFIVSIL	Initially in media		0.045	0.02025	YES	YES	0.122	0.486	little detectable activity
SPAM1-SILF: C-terminally truncated human PH20, precursor 500 aa (SEQ ID NO:48), mature 465 aa (SEQ ID NO:100) (protein, listed as Homo sapiens, HuPH20 precursor 1-500; Mature HuPH20 36-500) chain 1: MGVLKFKHIFFRSFVKSSGVSQIVFTFLLIPCCLTLNFRAPPVIPNVPFLWAWNAPSEFCLGKFDEPLDMSLFSFIGSPRINATGQGVTIFYVDRLGYYPYIDSITGVTVNGGIPQKISLQDHLDKAKKDITFYMPVDNLGMAVIDWEEWRPTWARNWKPKDVYKNRSIELVQQQNVQLSLTEATEKAKQEFEKAGKDFLVETIKLGKLLRPNHLWGYYLFPDCYNHHYKKPGYNGSCFNVEIKRNDDLSWLWNESTALYPSIYLNTQQSPVAATLYVRNRVREAIRVSKIPDAKSPLPVFAYTRIVFTDQVLKFLSQDELVYTFGETVALGASGIVIWGTLSIMRSMKSCLLLDNYMETILNPYIINVTLAAKMCSQVLCQEQGVCIRKNWNSSDYLHLNPDNFAIQLEKGGKFTVRGKPTLEDLEQFSEKFYCSCYSTLSCKEKADVKDTDAVDVCIADGVCIDAFLKPPMETEEPQIFYNASPSTLSATMFIVSILF chain 2: LNFRAPPVIPNVPFLWAWNAPSEFCLGKFDEPLDMSLFSFIGSPRINATGQGVTIFYVDRLGYYPYIDSITGVTVNGGIPQKISLQDHLDKAKKDITFYMPVDNLGMAVIDWEEWRPTWARNWKPKDVYKNRSIELVQQQNVQLSLTEATEKAKQEFEKAGKDFLVETIKLGKLLRPNHLWGYYLFPDCYNHHYKKPGYNGSCFNVEIKRNDDLSWLWNESTALYPSIYLNTQQSPVAATLYVRNRVREAIRVSKIPDAKSPLPVFAYTRIVFTDQVLKFLSQDELVYTFGETVALGASGIVIWGTLSIMRSMKSCLLLDNYMETILNPYIINVTLAAKMCSQVLCQEQGVCIRKNWNSSDYLHLNPDNFAIQLEKGGKFTVRGKPTLEDLEQFSEKFYCSCYSTLSCKEKADVKDTDAVDVCIADGVCIDAFLKPPMETEEPQIFYNASPSTLSATMFIVSILF	Initially in media				WEAK/YES	YES	0.162	0.365	little detectable activity
